Results as given in US20190338035A1 (EUREKA THERAPEUTICS, published 2019).

Columns and labels:
[1] = target: T1, WT H3.3 26-35 peptide/HLA-A*02:01 complex on T2 cells (human); experiment: flow cytometry, scFv phage on T2 cells, anti-M13 + labelled anti-mouse IgG
T1 construct: whole, on cells; T2 cells pulsed with the synthetic peptide; also called T2-WT H3.3; T2-WT 3.3

[2] = target: T2, control peptide mixture P20/HLA-A*02:01 complexes on T2 cells (human); experiment: as above
T2 construct: whole, on cells; A pool of 20 different peptide/HLA-A*02:01 complexes on one cell population, not a single complex; also called T2-P20

[3] = target: T3, HLA-A*02:01 on T2 cells without peptide loading (human); experiment: as above
T3 construct: whole, on cells; TAP-deficient T2 cells with no exogenous peptide

[4] = target: T1, WT H3.3 26-35 peptide/HLA-A*02:01 …; experiment: flow cytometry, scFv phage on T2 cells, anti-M13 + PE anti-mouse IgG
[5] = target: T4, WT H3.1 26-35 peptide/HLA-A*02:01 complex on T2 cells (human); experiment: as above
T4 construct: whole, on cells; T2 cells pulsed with the synthetic peptide; also called T2-WT H3.1; T2-WT 3.1

[6] = target: T3, HLA-A*02:01 on T2 cells without peptide …; experiment: as above
[7] = target: T2, control peptide mixture P20/HLA-A*02:01 …; experiment: as above
[8] = target: T3, HLA-A*02:01 on T2 cells without peptide …; experiment: flow cytometry, scFv phage on T2 cells
[9] = target: T3, HLA-A*02:01 on T2 cells without peptide …; experiment: T2 stabilisation assay, BB7.2 staining, flow cytometry

Row | Binder | Median MFI (PE-A) [1] | Median MFI (PE-A) [2] | Median MFI (PE-A) [4] | Median MFI (PE-A) [5] | Median MFI (PE-A) [7] | also measured
1 | Phage clone 36 (scFv, fusion to the phage coat protein not described) scFv: SSELTQDPAVSVALGQTVRITCQGDSLRSYYANWYQQKPGQAPVLVIYAKSNRPSGIADRFSGSSSGNTASLTITGAQAEDEADYYCNSRDSSGNRWVFGGGTKVTVLGSRGGGGSGGGGSGGGGSLEMAEVQLVQSGAEVKKPGASVKVSCKASGYTFTGYYMHWVRQAPGKGLEWMGGFDPEDGETIYAQKFQGRVTMTEDTSTDTAYMELSSLRSEDTAVYYCARSSWWSPVTYYDIWGQGTLVTVSS | 33600 MFI | 11000 MFI |  |  |  | 
2 | Phage clone 33 (scFv, fusion to the phage coat protein not described) scFv: QSVLTQPPSVSGAPGQRVTIFCTGSSSNIGAGYDVHWYQQLPGTAPKLLIYGNNNRPSGVPDRFSGSKSGTSASLAITGLQAEDEADYYCQSYDTSLTPVFGGGTKLTVLGSRGGGGSGGGGSGGGGSLEMAEVQLVQSGAEVRKPGSSVKVSCKASAGTFNRYSLSWVRQAPGQGLEWVGRIIPIIGVADYAQKFQGRVTITADKSATTAYMELHSLRSEDTAVYYCARQEYSYAMDYWGQGTLVTVSS | 49100 MFI | 2860 MFI |  |  |  | 
3 | Phage clone 32 (scFv) scFv: QSVLTQPPSVSGAPGQRVTISCTGSSSNLGAGYDVHWYQQLPGTAPKVLVYFNNNRPSGVPDRFSGSKSGTSASLAITGLQAEDEADYYCQSYDSSLSASVFGTGTKVTVLGSRGGGGSGGGGSGGGGSLEMAQVQLVESGAEVKKPGASVKVSCKASGYTFTSYTITWVRQAPGQGLEWMGWISPYNGNTNYAQNLQGRVTMTTDTSTTTAYMELRSLTSDDTAVYYCARSWEHGFPYDEWGQGTLVTVSS | 90800 MFI | 146 MFI |  |  |  | Median MFI (PE-A) [3]: 132 MFI
4 | Phage clone 35 (scFv) scFv: SYVLTQPPSASGTPGQRVTISCSGSTFNIGSNTVNWYQQLPATAPKLLIYSNNQRPSGVPDRFSGSKSGTSASLAISGLQSEDAAAYYCAAWDDSLSGHVVFGGGTKLTVLGSRGGGGSGGGGSGGGGSLEMAEVQLVQSGAEVKKPGASVKVSCKASGYTFTSYGISWVRQAPGQGLEWMGWISAYNGNTNYAQKLQGRVTMTTDTSTSTAYMELRSLRSDDTAVYYCARYYESGYPFDWWGQGTLVTVSS | 84200 MFI | 124 MFI |  |  |  | Median MFI (PE-A) [3]: 125 MFI
5 | Phage clone 34 (scFv) scFv: QSVLTQPPSVSGAPGQRVTISCTGSSLNLGAGYDVHWYQQFPGTAPKLLIFANTNRPSGVPDRFSASKSGTSASLAITGLQAEDEADYFCQSYDNSLSGYVFGTGTKVTVLGSRGGGGSGGGGSGGGGSLEMAQVQLVQSGAEVKKPGSSVKVSCKASGGTFSSYAISWVRQAPGQGLEWMGGIIPIFGTANYAQKFQGRVTITADESTSTAYMELSSLRSEDTAVYYCARSYWTFEYSIDSWGQGTLVTVSS | 8340 MFI | 109 MFI |  |  |  | Median MFI (PE-A) [3]: 109 MFI
6 | Phage clone 31 (scFv, fusion to the phage coat protein not described) scFv: QAVLTQPSSLSASPGASASLTCTLRSGINVGTYRIYWYQQKPGSPPQYLLRYKSDSDKQQGSGVPSRFSGSKDASANAGILLISGLQSEDEADYYCMIWHSSAWVFGGGTKLTVLGSRGGGGSGGGGSGGGGSLEMAEVQLVESGGGLVQPGGSLRLSCAASGLTFDRYAMSWVRQAAGKGLERFSAITGDGYYTYYADSVKGRFTISRDNSKNTLYLQMNSLGAEDTAVYYCARLSGIGRSSYDGWGQGTLVTVSS |  |  | 777 MFI | 529 MFI | 128 MFI | Median MFI (PE-A) [6]: 125 MFI; binding result [8]: no binding
7 | Phage clone 13 (scFv, fusion to the phage coat protein not described) scFv: DVVMTQSPLSLPVTLGQPASISCRSSQSLIYSNGNTYLTWFHQRPGQPPRRLIHKVSNRDSGVPDRFSGSGSGSDFTLKISRVEAEDVGIYYCMQGTHWPPTFGGGTKLEIKRSRGGGGSGGGGSGGGGSLEMAEVQLVQSGAEVKKPGESLKISCKGSGYSFTSYWIGWVRQMPGKGLEWMGIIYPGDSDTRYSPSFQGQVTISADKSISTAYLQWSSLKASDTAMYYCARGYDVWGQGTLVTVSS |  |  | 784 MFI | 761 MFI | 1560 MFI | Median MFI (PE-A) [6]: 543 MFI
8 | Phage clone 16 (scFv, fusion to the phage coat protein not described) scFv: DVVMTQSPLSLPVTLGQPASISCRSSQSLIYSNGNTYLTWFHQRPGQPPRRLIHKVSNRDSGVPDRFSGSGSGSDFTLKISRVEAEDVGIYYCMQGTHWPPTFGGGTKLEIKRSRGGGGSGGGGSGGGGSLEMAEVQLVQSGAEVKKPGESLKISCKGSGYSFTSYWIGWVRQMPGKGLEWMGIIYPGDSDTRYSPSFQGQVTISADKSISTAYLQWSSLKASDTAMYYCARGYDSWGQGTLVTVSS |  |  | 2440 MFI | 2320 MFI | 4190 MFI | Median MFI (PE-A) [6]: 1700 MFI
9 | Phage clone 5 (scFv, fusion to the phage coat protein not described; also called anti-HMC scFv 5) scFv: DVVMTQSPLSLPVTLGQPASISCRSSQSLVYSNGNTYLNWFHQRPGQSPRRLIYEVSNRDSGVPDRFSGSGSGTDFTLKISRVEAEDVGVYYCMQGTHWPPTFGGGTKLEIKRSRGGGGSGGGGSGGGGSLEMAEVQLVQSGAEVKKPGESLKISCKGSGYSFTSYWIGWVRQMPGKGLEWMGIIYPGDSDTRYSPSFQGQVTISADKSISTAYLQWSSLKASDTAMYYCARGYDGWGQGTLVTVSS |  |  | 305 MFI | 320 MFI | 703 MFI | 
10 | Phage clone 10 (scFv, fusion to the phage coat protein not described) scFv: EIVLTQSPLSLPVTLGQPASISCRSSQSLVYSNGNTYLSWFHQRPGQSPRRLIYKVSKRDSGVPDRFSGSGSGTDFTLKISRVEAEDVGVFYCMQGTYWPYTFGQGTKLEIKRSRGGGGSGGGGSGGGGSLEMAEVQLVQSGAEVKKPGESLKISCKGSGYSFTSYWIGWVRQMPGKGLEWMGIIYPGDSDTRYSPSFQGQVTISADKSISTAYLQWSSLKASDTAMYYCARGFDNWGQGTLVTVSS |  |  | 849 MFI | 770 MFI | 2010 MFI | Median MFI (PE-A) [6]: 686 MFI
11 | RKSAPATGGV (Free synthetic peptide pulsed onto T2 cells; also called H3.1 26-35 WT peptide) [WT H3.1 26-35 peptide] |  |  |  |  |  | binding result [9]: binds
12 | RMSAPATGGV (Free synthetic peptide pulsed onto T2 cells) [mutant histone K27M-H3.1 26-35 peptide] |  |  |  |  |  | binding result [9]: binds
13 | RMSAPSTGGV (Free synthetic peptide pulsed onto T2 cells) [mutant histone K27M-H3.3 26-35 peptide] |  |  |  |  |  | binding result [9]: binds
14 | Phage clone 38 (scFv, fusion to the phage coat protein not described) scFv: SYELTQPPSVSVAPGKTARITCGGNNIGSKSVNWYQQKPGQAPVLVIYYDNDRPSGIPERFSGSNSGNTATLTISRVEAGDEADYYCQVWNSSSDHYVFGTGTKVTVLGSRGGGGSGGGGSGGGGSLEMAQMQLVQSGAEVKTTGASVRVSCKASGYTFTDYYLHWVRQAPGQGLEWMGWINPHSGGTNYAQKFQGRVTMTRDTSISTAYMELSSLRSDDTAVYYCAREDYSGSGSSDAWGQGTLVTVSS | 32900 MFI | 128 MFI |  |  |  | Median MFI (PE-A) [3]: 66 MFI
